According to doi:10.1101/2025.05.28.656718 (bioRxiv, 2025):

B1: Recombinant SARM1 (affinity tags removed by TEV protease) (natural protein, human, UniProt Q6SZW1 28-724, looked up)
chain: LAVPGPDGGGGTGPWWAAGGRGPREVSPGAGTEVQDALERALPELQQALSALKQAGGARAVGAGLAEVFQLVEEAWLLPAVGREVAQGLCDAIRLDGGLDLLLRLLQAPELETRVQAARLLEQILVAENRDRVARIGLGVILNLAKEREPVELARSVAGILEHMFKHSEETCQRLVAAGGLDAVLYWCRRTDPALLRHCALALGNCALHGGQAVQRRMVEKRAAEWLFPLAFSKEDELLRLHACLAVAVLATNKEVEREVERSGTLALVEPLVASLDPGRFARCLVDASDTSQGRGPDDLQRLVPLLDSNRLEAQCIGAFYLCAEAAIKSLQGKTKVFSDIGAIQSLKRLVSYSTNGTKSALAKRALRLLGEEVPRPILPSVPSWKEAEVQTWLQQIGFSKYCESFREQQVDGDLLLRLTEEELQTDLGMKSGITRKRFFRELTELKTFANYSTCDRSNLADWLGSLDPRFRQYTYGLVSCGLDRSLLHRVSEQQLLEDCGIHLGVHRARILTAAREMLHSPLPCTGGKPSGDTPDVFISYRRNSGSQLASLLKVHLQLHGFSVFIDVEKLEAGKFEDKLIQSVMGARNFVLVLSPGALDKCMQDHDCKDWVHKEIVTALSCGKNIVPIIDGFEWPEPQVLPEDMQAVLTFNGIKWSHEYQEATIEKIIRFLQGRSSRDSSAGSDTSLEGAAPMGPT

Assays:
[1] = molecular target: B1; experiment: SPR
His-tagged PKM1 = His-tagged PKM1 (human, UniProt P14618-2 1-531); experiment: AlphaScreen or HTRF

Kd [1] | IC50 (His-tagged PKM1) | Binder
2890 nM |  | Recombinant PKM1 (His-SUMO tag removed) (enzyme) not shown
1310 nM |  | Recombinant PKM2 (His-SUMO tag removed) (enzyme) not shown
 | 3460 nM | B1
